Measured values from article PMC3001066 (Nucleic Acids Research, 2010).

Biological target: full-length hAPE1 (human apurinic/apyrimidinic endonuclease 1), recombinant, as immobilised for SPR (human, UniProt P27695 1-318)
Test: SPR

full-length hAPE1 (human apurinic/apyrimidinic endonuclease 1), recombinant, as immobilised for SPR, sequence (P27695 whole entry): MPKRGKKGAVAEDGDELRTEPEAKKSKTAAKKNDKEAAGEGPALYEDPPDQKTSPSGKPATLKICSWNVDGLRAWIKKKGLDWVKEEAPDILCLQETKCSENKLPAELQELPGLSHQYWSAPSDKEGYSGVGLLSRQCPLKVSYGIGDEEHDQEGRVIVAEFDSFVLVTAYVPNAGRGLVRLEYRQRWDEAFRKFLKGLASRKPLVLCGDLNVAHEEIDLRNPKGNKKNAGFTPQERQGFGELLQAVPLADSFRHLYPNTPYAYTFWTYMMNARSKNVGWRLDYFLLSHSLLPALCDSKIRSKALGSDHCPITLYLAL

- Kd: 668 ± 5 nM
B1: N-terminal domain of NPM1 (residues 1-117) (domain or fragment, UniProt P06748 1-117, looked up)
chain: MEDSMDMDMSPLRPQNYLFGCELKADKDYHFKVDNDENEHQLSLRTVSLGAGAKDELHIVEAEAMNYEGSPIKVTLATLKMSVQPTVSLGGFEITPPVVLRLKCGSGPVHISGQHLV
